# Reference: paper PMC314469, “Protein Interaction Networks by Proteome Peptide Scanning” (PLoS Biology, 2004)
# Tests used:
# Assay in all cases: SPOT array
# [1] = molecular target: Sho1 SH3 (SHO1_YEAST), P40073
# [2] = molecular target: T1, Yhr016c SH3 (YSC84_YEAST), P32793
# T1 chain: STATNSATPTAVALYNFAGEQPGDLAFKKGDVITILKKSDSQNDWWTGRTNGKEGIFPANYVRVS
# [3] = molecular target: T2, Boi2 SH3 (BOI2_YEAST), P39969
# T2 chain: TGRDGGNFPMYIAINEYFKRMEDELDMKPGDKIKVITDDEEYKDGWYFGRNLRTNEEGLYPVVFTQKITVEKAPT
# [4] = molecular target: T3, Boi1 SH3 (BOI1_YEAST), P38041
# T3 chain: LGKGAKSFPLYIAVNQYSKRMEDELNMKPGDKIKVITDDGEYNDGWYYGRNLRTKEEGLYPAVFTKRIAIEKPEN
# [5] = molecular target: T4, Yfr024 SH3 (LSB3_YEAST), P43603
# T4 chain: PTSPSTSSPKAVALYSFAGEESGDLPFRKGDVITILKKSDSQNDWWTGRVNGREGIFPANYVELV
# [6] = molecular target: T5, Myo5 SH3 (MYO5_YEAST), Q04439
# T5 chain: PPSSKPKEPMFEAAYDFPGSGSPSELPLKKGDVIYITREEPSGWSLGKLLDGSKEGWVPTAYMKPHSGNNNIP
# [7] = molecular target: T6, Rvs167 SH3 (RV167_YEAST), P39743
# T6 chain: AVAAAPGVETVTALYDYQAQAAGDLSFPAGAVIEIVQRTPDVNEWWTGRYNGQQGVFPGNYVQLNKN
# Chain of Sho1 SH3 (SHO1_YEAST), P40073 (P40073 295-366): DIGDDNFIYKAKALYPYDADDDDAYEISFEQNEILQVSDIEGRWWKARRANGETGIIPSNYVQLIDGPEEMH
Binder,"normalised SPOT signal, Boehringer light units (BLU); mean over the file's lines of this peptide [1]","normalised SPOT signal, Boehringer light units (BLU); mean over the file's lines of this peptide [2]","normalised SPOT signal, Boehringer light units (BLU); mean over the file's lines of this peptide [3]","normalised SPOT signal, Boehringer light units (BLU); mean over the file's lines of this peptide [4]","normalised SPOT signal, Boehringer light units (BLU); mean over the file's lines of this peptide [5]","normalised SPOT signal, Boehringer light units (BLU); mean over the file's lines of this peptide [6]","normalised SPOT signal, Boehringer light units (BLU); mean over the file's lines of this peptide [7]"
VEMKRKKPVRPVDI [YDR436W 385-398],66.9,152,48.2,1610,2590,472,64
TTTYKSRPDRPKPV [YBR289W 757-770],44.7,68.7,23.7,607,266,309,97.7
VFYHRPAPKPPVTK [YDL028C 400-413],267,95,29.2,879,156,9050,90.2
VAPNRIPPKVPVIN [YDR466W 429-442],19.2,17.7,25,103,213,61100,55.9
VEVDKKVPVLPMVA [YMR108W 643-656],30.9,43.3,31.8,107,98.7,130,180
TYGFRVRPDFPVFG [YMR295C 130-143],71.3,134,69.1,12200,892,357,361
VDSFKYEPLAPGND [YLR335W 665-678],22.1,15.2,13.5,0,0,134,35.2
VFVEKSKPTYPGTE [YOL155C 384-397],81,22.1,19.2,51.6,0,96.4,64.7
TVRTRRRPPPPPIP [YNL094W 462-475],95.5,91.7,12.6,3490,891,46200,663
TYLTRPLPSTPNED [YOL070C 348-361],14200,47100,-0,193,20100,101,11900
TYIWRYLPAPPVSI [YOR116C 255-268],657,173,23.6,64.5,522,444,356
VSTIRSTPSQPIHS [YDR390C 176-189],59.8,37.4,39.1,93.9,177,245,68.8
VEKRKFTPIEPSLL [YPL242C 332-345],35.6,71.2,77.3,594,179,171,222
TTTIKNRPVPPPLP [YPL140C 79-92],50.1,32.8,0,86.4,290,1870,598
TVSDRLIPTSPQKT [YGR146C 10-23],60.1,13,31.8,50,76.1,128,143
VSHSKYIPLKPIQD [YGL017W 314-327],25.4,25.7,29.9,138,34.8,298,6.3
